Numbering of substitutions follows the chain as printed. In names and notes the source's numbering stands.
B1: MTSP-1 Q38H/I41A/D60bE/F60eH/Y60gW/F97T/ins97aE/T98G/F99L/C122S/G151N/Q175L/Q192D (enzyme)
chain: VVGGTDADEGEWPWQVSLHALGHGHACGASLISPNWLVSAAHCYIDERGHRWSDPTQWTAFLGLHDQSQRSAPGVQERRLKRIISHPFFNDTEGLDYDIALLELEKPAEYSSMVRPISLPDASHVFPAGKAIWVTGWGHTQYGGTNALILQKGEIRVINQTTCENLLPQLITPRMMCVGFLSGGVDSCDGDSGGPLSSVEADGRIFQAGVVSWGDGCAQRNKPGVYTRLPLFRDWIKENTGV
B2: MTSP-1 Q38R/I41S/D60bH/F60eI/ins97aE/F97T/T98G/F99L/C122S/G151N/Q175L/Q192E (enzyme)
chain: B1 chain with H23R, A26S, E47H, H50I, W52Y, D189E
B3: MTSP-1 Q38W/I41S/D60bG/F60eI/F97D/ins97aV/T98P/F99L/C122S/G151N/Q175A/Q192D (enzyme)
chain: B1 chain with H23W, A26S, E47G, H50I, W52Y, T92D, E93V, G94P, L170A
B4: MTSP-1 Q38H/I41S/D60bT/F60eS/ins97aV/F97D/T98P/F99L/C122S/G151H/Q175L/Q192E (enzyme)
chain: B1 chain with A26S, E47T, H50S, W52Y, T92D, E93V, G94P, N146H, D189E
B5: MTSP-1 I41T/D60bW/F60eH/F97D/ins97aV/T98P/F99L/C122S/G151N/Q175L/Q192G (enzyme)
chain: B1 chain with H23Q, A26T, E47W, W52Y, T92D, E93V, G94P, D189G
B6: MTSP-1 D60bY/F97T/ins97aE/T98G/F99L/C122S/Q175L/Q192G (enzyme)
chain: B1 chain with H23Q, A26I, E47Y, H50F, W52Y, N146G, D189G
B7: MTSP-1 Q38L/I41T/D60bR/F60eL/Y60gM/F97T/ins97aE/T98G/F99L/C122S/G151N/Q175L/Q192G (enzyme)
chain: B1 chain with H23L, A26T, E47R, H50L, W52M, D189G
B8: MTSP-1 Q38H/I41A/D60bK/F60eK/Y60gW/F97T/ins97aE/T98G/F99L/C122S/Q175L/Q192D (enzyme)
chain: B1 chain with E47K, H50K, N146G
B9: MTSP-1 Q38L/I41T/D60bA/F60eL/ins97aV/F97D/T98P/F99L/C122S/G151H/Q175M/Q192T (enzyme)
chain: VVGGTDADEGEWPWQVSLHALGLGHTCGASLISPNWLVSAAHCYIDARGLRYSDPTQWTAFLGLHDQSQRSAPGVQERRLKRIISHPFFNDDVPLDYDIALLELEKPAEYSSMVRPISLPDASHVFPAGKAIWVTGWGHTQYGGTHALILQKGEIRVINQTTCENLLPQMITPRMMCVGFLSGGVDSCTGDSGGPLSSVEADGRIFQAGVVSWGDGCAQRNKPGVYTRLPLFRDWIKENTGV
B10: MTSP-1 I41T/D60bY/F97T/ins97aE/T98G/F99L/C122S/Q175L/Q192G (enzyme)
chain: B1 chain with H23Q, A26T, E47Y, H50F, W52Y, N146G, D189G
B11: MTSP-1 Q38R/I41S/D60bY/F60eD/ins97aV/F97D/T98P/F99L/C122S/G151N/Q175M/Q192A (enzyme)
chain: B9 chain with L23R, T26S, A47Y, L50D, H146N, T189A
B12: MTSP-1 Q38V/I41S/D60bT/F60eT/F97D/ins97aV/T98P/F99L/C122S/G151N/Q175H/Q192S (enzyme)
chain: B9 chain with L23V, T26S, A47T, L50T, H146N, M170H, T189S
B13: MTSP-1 Q38H/I41A/D60bT/F60eK/Y60gW/ins97aE/F97T/T98G/F99L/C122S/Q175L/Q192D (enzyme)
chain: B1 chain with E47T, H50K, N146G
B14: MTSP-1 Q38H/I41A/D60bV/F60eR/ins97aE/F97T/T98G/F99L/C122S/G151N/Q175L/Q192D (enzyme)
chain: B1 chain with E47V, H50R, W52Y
B15: MTSP-1 Q38H/I41S/D60bA/F60eV/ins97aE/F97T/T98G/F99L/C122S/Q175L/Q192E/Q209L (enzyme)
chain: B1 chain with A26S, E47A, H50V, W52Y, N146G, D189E, Q207L
B16: MTSP-1 Q38E/I41S/D60bT/F60eR/F97T/ins97aE/T98G/F99L/C122S/Q175L/Q192V (enzyme)
chain: B1 chain with H23E, A26S, E47T, H50R, W52Y, N146G, D189V
B17: MTSP-1 Q38E/I41S/D60bV/F60eK/Y60gW/F97T/ins97aE/T98G/F99L/C122S/G151N/Q175L/Q192D (enzyme)
chain: B1 chain with H23E, A26S, E47V, H50K
B18: MTSP-1 Q38H/I41S/D60bT/F60eS/ins97aV/F97D/T98P/F99L/C122S/G151H/Q175A/Q192D (enzyme)
chain: B9 chain with L23H, T26S, A47T, L50S, M170A, T189D
B19: MTSP-1 Q38H/I41A/D60bV/F60eI/Y60gW/F97T/ins97aE/T98G/F99L/C122S/G151N/Q175L/Q192D (enzyme)
chain: B1 chain with E47V, H50I
B20: MTSP-1 Q38H/I41A/D60bV/F60eR/Y60gW/ins97aE/F97T/T98G/F99L/C122S/G151N/Q175L/Q192D (enzyme)
chain: B1 chain with E47V, H50R
B21: MTSP-1 Q38H2I/I41S/F97T/ins97aE/T98G/F99L/C122S/Q175L/Q192V (enzyme)
chain: B1 chain with H23K, A26S, E47D, H50F, W52Y, N146G, D189V
B22: MTSP-1 Q38S/I41S/F60eR/F97T/ins97aE/T98G/F99L/C122S/G151N/Q175L/Q192S (enzyme)
chain: B1 chain with H23S, A26S, E47D, H50R, W52Y, D189S
B23: MTSP-1 Q38H/I41A/F60eA/Y60gW/ins97aE/F97T/T98G/F99L/C122S/Q175L/Q192E (enzyme)
chain: B1 chain with E47D, H50A, N146G, D189E
B24: MTSP-1 Q38R/I41E/ins97aE/F97T/T98G/F99L/C122S/G151N/Q175L/Q192T (enzyme)
chain: B1 chain with H23R, A26E, E47D, H50F, W52Y, D189T
B25: MTSP-1 Q38T/I41S/D60bV/F60eR/ins97aV/F97D/T98P/F99L/C122S/G151N/Q175R/Q192V (enzyme)
chain: B9 chain with L23T, T26S, A47V, L50R, H146N, M170R, T189V
B26: MTSP-1 Q38H/I41A/D60bV/F60eI/ins97aE/F97T/T98G/F99L/C122S/Q175L/Q192E (enzyme)
chain: B1 chain with E47V, H50I, W52Y, N146G, D189E
B27: MTSP-1 Q38H/I41A/D60bT/F60eR/F97T/ins97aE/T98G/F99L/C122S/Q175L/Q192V (enzyme)
chain: B1 chain with E47T, H50R, W52Y, N146G, D189V

Molecular target: plasma purified human complement protein C3 (human) (UniProt P01024)
Test: cell-based or functional assay

plasma purified human complement protein C3 (human), sequence (P01024 23-667, chain 1 of 2): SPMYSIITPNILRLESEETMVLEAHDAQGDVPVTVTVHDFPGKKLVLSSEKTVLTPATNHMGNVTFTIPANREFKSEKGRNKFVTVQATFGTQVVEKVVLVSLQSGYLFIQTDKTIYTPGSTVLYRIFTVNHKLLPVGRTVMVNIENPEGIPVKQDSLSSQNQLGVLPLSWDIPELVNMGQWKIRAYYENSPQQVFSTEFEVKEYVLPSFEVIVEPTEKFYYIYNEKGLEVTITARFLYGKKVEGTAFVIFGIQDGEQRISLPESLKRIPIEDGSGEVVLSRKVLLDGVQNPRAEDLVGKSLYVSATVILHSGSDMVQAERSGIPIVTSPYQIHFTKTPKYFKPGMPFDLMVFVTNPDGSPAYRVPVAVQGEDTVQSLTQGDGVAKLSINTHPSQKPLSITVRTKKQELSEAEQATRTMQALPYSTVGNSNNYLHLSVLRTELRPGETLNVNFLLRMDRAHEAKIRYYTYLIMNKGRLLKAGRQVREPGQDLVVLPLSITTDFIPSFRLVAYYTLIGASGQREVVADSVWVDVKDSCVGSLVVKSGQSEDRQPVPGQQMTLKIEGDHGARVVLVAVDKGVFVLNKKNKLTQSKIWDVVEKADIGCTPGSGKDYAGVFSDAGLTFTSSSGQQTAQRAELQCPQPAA
plasma purified human complement protein C3 (human), sequence (P01024 672-1663, chain 2 of 2): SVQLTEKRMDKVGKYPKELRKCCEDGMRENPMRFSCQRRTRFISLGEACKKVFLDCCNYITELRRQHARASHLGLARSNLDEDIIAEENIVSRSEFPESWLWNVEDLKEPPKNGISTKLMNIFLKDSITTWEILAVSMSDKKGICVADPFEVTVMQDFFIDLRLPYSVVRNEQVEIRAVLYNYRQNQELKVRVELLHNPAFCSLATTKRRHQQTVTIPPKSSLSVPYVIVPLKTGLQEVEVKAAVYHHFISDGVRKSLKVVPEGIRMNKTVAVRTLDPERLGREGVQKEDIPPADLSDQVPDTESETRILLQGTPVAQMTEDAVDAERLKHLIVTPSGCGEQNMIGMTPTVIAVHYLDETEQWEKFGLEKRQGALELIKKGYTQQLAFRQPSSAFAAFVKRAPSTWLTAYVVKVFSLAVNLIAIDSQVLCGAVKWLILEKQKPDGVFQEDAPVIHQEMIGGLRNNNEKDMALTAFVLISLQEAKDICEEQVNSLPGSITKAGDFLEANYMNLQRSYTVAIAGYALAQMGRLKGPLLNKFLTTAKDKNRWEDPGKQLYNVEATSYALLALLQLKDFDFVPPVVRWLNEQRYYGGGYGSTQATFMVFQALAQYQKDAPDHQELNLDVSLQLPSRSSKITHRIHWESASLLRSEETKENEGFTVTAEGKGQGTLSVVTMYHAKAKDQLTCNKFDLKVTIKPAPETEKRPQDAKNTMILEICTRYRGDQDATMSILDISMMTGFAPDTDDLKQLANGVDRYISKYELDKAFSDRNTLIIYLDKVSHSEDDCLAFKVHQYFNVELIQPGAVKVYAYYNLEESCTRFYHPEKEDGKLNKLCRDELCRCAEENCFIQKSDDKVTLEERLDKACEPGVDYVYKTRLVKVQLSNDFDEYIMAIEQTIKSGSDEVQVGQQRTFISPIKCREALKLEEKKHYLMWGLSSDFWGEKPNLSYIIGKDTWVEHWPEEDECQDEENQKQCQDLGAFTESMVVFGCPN

| EC50 of hC3 cleavage [nM] | Binder |
| --- | --- |
| 8.28 | B1 |
| 32.9 | B2 |
| 43.1 | B3 |
| 29.8 | B4 |
| 3.1 | B5 |
| 4.1 | B6 |
| 23.7 | B7 |
| 22.3 | B8 |
| 20.2 | B9 |
| 3.88 | B10 |
| 3.22 | B11 |
| 18.5 | B12 |
| 3.82 | B13 |
| 6.06 | B14 |
| 16.9 | B15 |
| 32.7 | B16 |
| 12.1 | B17 |
| 67.8 | B18 |
| 2.91 | B19 |
| 7.74 | B20 |
| 43 | B21 |
| 6.26 | B22 |
| 5.93 | B23 |
| 105 | B24 |
| 15.7 | B25 |
| 7.64 | B26 |
| 6.54 | B27 |
